# Source: article PMC12416549 (2024)
# Substitutions are numbered along the chain they refer to. Names may count otherwise.
# T1: TNFR1 (Homo sapiens, UniProt P19438)
# T1 chain: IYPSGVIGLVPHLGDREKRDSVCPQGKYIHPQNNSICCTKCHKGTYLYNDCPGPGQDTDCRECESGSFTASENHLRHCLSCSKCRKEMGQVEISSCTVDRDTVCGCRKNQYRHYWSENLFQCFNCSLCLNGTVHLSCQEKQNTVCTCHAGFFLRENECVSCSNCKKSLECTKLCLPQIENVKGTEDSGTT
# B1: S77H (designed binder)
# chain: SMEEEVEKAAKEYEKKKKEAIEKHLEKLKAKDKEAAERFLKELEEAAKEYAKDEAKTMSEEEAKRRAKKYKEKVLLHELSEEEQKEIKEAEEKLVRTILKYVEEAAK
# B2: E34I (designed binder)
# chain: B1 chain with E34I, H77S
# B3: L76Q (designed binder)
# chain: B1 chain with L76Q, H77S
# B4: E83W (designed binder)
# chain: B1 chain with H77S, E83W
# B5: E7P (designed binder)
# chain: B1 chain with E7P, H77S
# B6: A105Q (designed binder)
# chain: B1 chain with H77S, A105Q
# B7: E5M (designed binder)
# chain: B1 chain with E5M, H77S
# B8: K52I (designed binder)
# chain: B1 chain with K52I, H77S
# B9: I87V (designed binder)
# chain: B1 chain with H77S, I87V
# B10: R38C (designed binder)
# chain: B1 chain with R38C, H77S
# B11: A51H (designed binder)
# chain: B1 chain with A51H, H77S
# B12: E81M (designed binder)
# chain: B1 chain with H77S, E81M
# B13: L75P (designed binder)
# chain: B1 chain with L75P, H77S
# B14: E3G (designed binder)
# chain: B1 chain with E3G, H77S
# B15: A51V (designed binder)
# chain: B1 chain with A51V, H77S
# B16: M58N (designed binder)
# chain: B1 chain with M58N, H77S
# B17: E103D (designed binder)
# chain: B1 chain with H77S, E103D
# B18: R65E (designed binder)
# chain: B1 chain with R65E, H77S
# B19: E22W (designed binder)
# chain: B1 chain with E22W, H77S
# B20: M2I (designed binder)
# chain: B1 chain with M2I, H77S
# B21: Q84H (designed binder)
# chain: B1 chain with H77S, Q84H
# B22: E42S (designed binder)
# chain: B1 chain with E42S, H77S
# B23: E72W (designed binder)
# chain: B1 chain with E72W, H77S
# B24: L76F (designed binder)
# chain: B1 chain with L76F, H77S
# B25: E4Q (designed binder)
# chain: B1 chain with E4Q, H77S
# B26: E92G (designed binder)
# chain: B1 chain with H77S, E92G
# B27: L25I (designed binder)
# chain: B1 chain with L25I, H77S
# B28: K41L (designed binder)
# chain: B1 chain with K41L, H77S
# B29: E44S (designed binder)
# chain: B1 chain with E44S, H77S
# B30: L43H (designed binder)
# chain: B1 chain with L43H, H77S
# B31: K16W (designed binder)
# chain: B1 chain with K16W, H77S
# B32: E92W (designed binder)
# chain: B1 chain with H77S, E92W
# B33: Q84C (designed binder)
# chain: B1 chain with H77S, Q84C
# B34: K11F (designed binder)
# chain: B1 chain with K11F, H77S
# B35: K15N (designed binder)
# chain: B1 chain with K15N, H77S
# B36: E86L (designed binder)
# chain: B1 chain with H77S, E86L
# B37: A9G (designed binder)
# chain: B1 chain with A9G, H77S
# B38: E92R (designed binder)
# chain: B1 chain with H77S, E92R
# B39: R65D (designed binder)
# chain: B1 chain with R65D, H77S
# B40: K107Q (designed binder)
# chain: B1 chain with H77S, K107Q
# B41: R65M (designed binder)
# chain: B1 chain with R65M, H77S
# B42: K100H (designed binder)
# chain: B1 chain with H77S, K100H
# B43: Y101S (designed binder)
# chain: B1 chain with H77S, Y101S
# B44: K41N (designed binder)
# chain: B1 chain with K41N, H77S
# B45: A55W (designed binder)
# chain: B1 chain with A55W, H77S
# B46: A67L (designed binder)
# chain: B1 chain with A67L, H77S
# B47: K11W (designed binder)
# chain: B1 chain with K11W, H77S
# B48: E37H (designed binder)
# chain: B1 chain with E37H, H77S
# B49: K52L (designed binder)
# chain: B1 chain with K52L, H77S
# B50: Q84T (designed binder)
# chain: B1 chain with H77S, Q84T
# B51: E12S (designed binder)
# chain: B1 chain with E12S, H77S
# B52: E14Y (designed binder)
# chain: B1 chain with E14Y, H77S
# B53: L28W (designed binder)
# chain: B1 chain with L28W, H77S
# B54: S80L (designed binder)
# chain: B1 chain with H77S, S80L
# B55: E14L (designed binder)
# chain: B1 chain with E14L, H77S
# B56: M58E (designed binder)
# chain: B1 chain with M58E, H77S
# B57: K100D (designed binder)
# chain: B1 chain with H77S, K100D
# B58: H24K (designed binder)
# chain: B1 chain with H24K, H77S
# B59: E37L (designed binder)
# chain: B1 chain with E37L, H77S
# Target: T1, TNFR1
# Test: yeast display SC50
row,apparent Kd (screen),Binder
1,0.49 nM,B1
2,0.446 nM,B2
3,1.86 nM,B3
4,2.25 nM,B4
5,1.4 nM,B5
6,0.593 nM,B6
7,0.446 nM,B7
8,0.446 nM,B8
9,3 nM,B9
10,2.25 nM,B10
11,0.49 nM,B11
12,0.539 nM,B12
13,3.99 nM,B13
14,3 nM,B14
15,9.41 nM,B15
16,13.8 nM,B16
17,0.79 nM,B17
18,1.54 nM,B18
19,0.593 nM,B19
20,1.27 nM,B20

row,apparent Kd (screen),Binder
1,3.3 nM,B21
2,7.78 nM,B22
3,0.446 nM,B23
4,0.539 nM,B24
5,0.446 nM,B25
6,1.54 nM,B26
7,0.956 nM,B27
8,0.446 nM,B28
9,1.86 nM,B29
10,3.63 nM,B30
11,0.49 nM,B31
12,10.4 nM,B32
13,4.83 nM,B33
14,0.49 nM,B34
15,0.539 nM,B35
16,1.4 nM,B36
17,1.05 nM,B37
18,11.4 nM,B38
19,0.405 nM,B39
20,1.16 nM,B40

row,apparent Kd (screen),Binder
1,0.956 nM,B41
2,1.16 nM,B42
3,0.956 nM,B43
4,0.49 nM,B44
5,20.2 nM,B45
6,7.78 nM,B46
7,0.79 nM,B47
8,0.446 nM,B48
9,0.869 nM,B49
10,11.4 nM,B50
11,0.446 nM,B51
12,10.4 nM,B52
13,0.49 nM,B53
14,0.539 nM,B54
15,7.07 nM,B55
16,8.56 nM,B56
17,2.48 nM,B57
18,2.73 nM,B58
19,0.869 nM,B59
